Results as given in patent US20040197853A1.

Substance: MTCS (enzyme)
- In vitro Reactivity with IgE (monoclonal IgE antibody): < 5%
- In vitro Reactivity with IgG (IgG antibody): < 5%
